{"source": "the DeepSol protein solubility set", "data": [{"experiment": "soluble on expression in E. coli; label from the status in PepcDB or PDB records", "values": [{"sequence": "GPGSMALVADVPPPTATSMAKLFQESSFDPVTTFEAVWLPPRVPAAPPTAGASEPVPFAAVVDVLADISATGSRLECLKQLTFLLLAVIERCPEDLVPVMYLVINKHAPQHEGVELGIGDAVLVKAVAECCGMTETRAKEEYRQSGDLAEIAQMHKQKQGTLMKPKPLSARSVFKTYKEIAMMSGRDVMRRRSDLIKGLLRDAQGPEVNLIVRGLQQKMRIGLAEPSALAAVGYAFALHFLGGAQMHKMDEVQLQTLLNTGADSLARIFYEVPSLDVVLSAVLANGFMTLVPGSSIAKQYAKDLSIRPGLPVKPQLAYPTSSITVILDRLQGKKFTSEYKYDGERAQIHYDKDKGFHIFSRNSETHTGKYPDVISMLPKVFDPVEVQSFILDSEVVAVHSETGALQAFQVLQHRGRKNIAEEDVSIPVCVFVFDILYFNGEPQLNKTLQQRRELLWRCIHPLPAKLSFATHLDSEKVEDVQTFLERSIADGCEGLMVKTLEEEANYTPAKRSHYWLKLKKDYMDGVTDTLDLVPIAAFYGKGKRTGVFGGFLLACYDPKADEYQSICKIGTGFQDEELEKLTQSLKPFVVDEKPRYYRAGGEEPDVWLTEAQVWEVKAADLSVSPVHQAAVGLVDPDKGIALRFPRYLRQREDKKPADATNARQVADMYKAQSLAAEHDANGDAE", "soluble on expression in E. coli": "not soluble"}, {"sequence": "GPGSMDRSVAESIRQQSDDLRDELKELEQWEDAMQAREMAKAQRKVPLPTSVAAAEPPIRGTVPSLKEAIRQQQQQARATGTSGDTAAEAIADPIQQAKDKGNVLFQSGHLQEAVAAYTVGIDLDPASATTHVLYANRAMCYLKLGQWTAAEKDATTCVHMNTGYAKAYYRRAVARKQLGKLREARADLEAVLALAPKDVSAQQEMESVTKALQAKRAAESQATTTATTTKKKRIVIEEVDSEGDEAAAEAPATSASKLSTEEEELHQACIEEDMRRLAAARKANEEQVRQEAQREAAAQAKRQRRHERVEIIEEAEHSPAEKKKMAPSPATSSPVVEQTPPLSTSSPPSSSSPSPTSAATRPRARPPIAKESLTAPKSFSEFERRFRELVQQPDLRDHYVRLLDPATMAKLFGSNMSPEMLLGILQAIKTFNATTALQYAKGLCQVSRVEDVALFFDAQEKAVVQDVLDLLRSAPGTPAKDIQQIERKLKPL", "soluble on expression in E. coli": "soluble"}, {"sequence": "GPGSMDSMCTFIIRPPRSTYEIADLGPGVFRIGDDCTERFMRHDFELENMRGLRFQCSWFKPYPARRVPCVVYCHANCGGRYDGLEALFLLQEGFSLFCFDFCGSGMSEGEYISLGFYERQDLVAIVEFLSLKSDEVDGVALWGRSMGAVATIMYASKGSIRGFVVLFAIRPSHPCGCSSTIWWSDMVGERPGFCQRFWCTGLWSASVSAS", "soluble on expression in E. coli": "not soluble"}, {"sequence": "GPGSMERAATQSQSIYSNANTNSSNVNTYGNTVSSYLSNNSPNAVMYGGGNSGNGGAPSSTSVATVYASPTQASPSQAIRQQAQGAAQQNMSQSQTSTSFNAYGGGAASGSGSGFFYSTPSAQAPGAQTMYSANPSAAAMFPMRGGSTSMTPAQPTPTQMLTPQANAAAAAAAVWTNAAANINAGSKLFVGQVPAVCTEDQLRPLFAQFGTLLEIKIMREPNGRSKGSAWVRYELEESAQRAITALNEKHVVPPQTNPLRVQFAAPSTNRIPQPLSALGSIMPPSAVMQPQPQPNYATAATYATPQGYAGTTTAYMQGQYATSPNLMAVRASPQQQAAVQSASGKIEYLRSNHPGSLIYSTASPTAVDAMQQQQQQQSPQQQQVVYTTGGQMRAGVMYTPDAFAMTNQMAAAPQQPHQWCS", "soluble on expression in E. coli": "soluble"}, {"sequence": "GPGSMFSCCLRSLARGREPQVLGTAVPSFYNFPYRAQDVLHLYRDLLKLIYQHPPQERADLLFRLRNEFHSRRHLSAPKLISAAIRRGEGILNVQRGLMESRSVRARAVASRERGAQSVDGLWDQLQIVSGHMLPGLRNFSASRGLSRGSYVRQATTQAVYSRRK", "soluble on expression in E. coli": "not soluble"}, {"sequence": "GPGSMFVSDNDDYLPEPQAPGDHHMHEERLRRLEENFALLLNQRSVGNASGPKESTPKARVTAVAADVQAADERSLKLTYELRELVPHLSPGFDCCSADALLLLSAIRNGSHGRGCESWEDRLAVVKAEKRSLHHQLEKKAQECEELKNAVAEMKQRLKAERQEALSSVNVLSQRREQVRKQLLLEESRSQKLQVRNGQLESELERLKDMLHSCMRR", "soluble on expression in E. coli": "not soluble"}, {"sequence": "GPGSMFYKMKLERNIKVEPHLLERTLHRHLEEYLRKAVEGTPLHLSLGNALRSGLARTNQNSSAVIIAVLDILNTSSLEGRVLDDGSVSFFVKYEGLVFKLHRGEVIDVIVSSVEREGWWGDVMGVGRMYISRGQMGNEWVYESDGMRGIWITKDGARSVKEGEIVRVRVVAETPQSEGVLAVGSMVGNYLGPL", "soluble on expression in E. coli": "not soluble"}, {"sequence": "GPGSMGVDLTGISKKSRVIRHHTYSTNPYIKLLIKLYKFLAKRTSSGFNKVVYQRLIKSRSNRAPISLSRIAVVMKRKAVFTAKSKAAPIAVVVGDVLDDVRMARIPAMRVCALRFSKSARQSIVAAGGECLTFDQLAMIAPTGKNTYLLRGRKSGRESVRHFGASGVPGSHSKPYATNRGKETKRGRRTGRSYKRKAFRHV", "soluble on expression in E. coli": "soluble"}, {"sequence": "GPGSMHLDEMLKEIQDMQEKNWTAVERTDIILAKLCAFLDKLAHSLRFMATSQPSCGAGAVCSAGVAVTTHTHGESARGLRISRDIRTAAAGRPFETEVDD", "soluble on expression in E. coli": "soluble"}, {"sequence": "GPGSMIQSDIVSYVGEMGDVPDALLITPLKDRKSSVYLTKYEVARIIGERARQIVNGTSVLLDSQNGCGTGNSLELAEGCADPFAASVDPIHITKLELLQGRIPMIVRRTWPDGRTENIPVNELKVDKMLLDVQH", "soluble on expression in E. coli": "not soluble"}, {"sequence": "GPGSMKERYDPLPPQLETYLRLIPPTSGAASGKADGDKKTGPRRSDDDPMSFYCTSFLMSREWDVQKAFAMMQEVVAYRAVNHLDEQSHFPPAFSVRGWSTEDVCRALERSPRKVGERIDRVCAGVAQGLICGIHYWDKNGRPVFYMVIDSFDEAELMRQLKQMASVGKSHVDVMWEYMVHVLSVTESLVLYQLIQRGAPLSGRPLTSKTTDEEAPAWDLSEGAVTMVYDMKRLTLKMLWKPIIDMFCDNSKTFFNYYPDRIHRIVCVNSPSLVRYAFLLVRGVLPAAFQRKISFVSPHDTLATLETMIDRKYIPHFLGGDCRCEAHDGECLSGYDPRQTGRTRRTVARTDASSEGNDEAPTVYVKLAAGHECTRVFPVNASEVVVWEFAVEGGGHDIIFTTFFVPQSAASGMQWTQVELSKLSSYMVTSEALAKGSDAFAVAEDGVVVLKWHNRRHWFASKRLQLRAYKEGAPSTLHGQASHPE", "soluble on expression in E. coli": "not soluble"}, {"sequence": "GPGSMKPATIPHGKNDAEGAGARMYEGMNTLQKEELNDYLISQMGPGTKWHDEMSDVVNTIIRQRSINGEPLDVHDVLSEALPHCQLAISHEVRDGLFRRIAGMCTTTDV", "soluble on expression in E. coli": "soluble"}, {"sequence": "GPGSMKTENFPRGQSAGPEGSLVEIPDHGERQQEVCHIGAPLQREIEAPAAEAGQSSDYKKPHAPHLLPVMEPVKPSSDPQLKDGRKEMPFTSALPIVVPDAPRLATQQRQVQKTKGNGSSAVPGEPDTCEGEPRAPSPGDPRPTQAFPAVEPFKRTASAKLSEARTDPRSPSASPDNESDGARVGSRQVDEEGSRPLCTLPAVELRKKPAGSTLQEEQAKELNTTHAFPVVEPDAVCTEARRSEELEDTRAGHAFPPVASGKQNTGA", "soluble on expression in E. coli": "soluble"}, {"sequence": "GPGSMLDFLEQLQQLASVYAICGNAVSVMAGMSDTAEELTFRSYDSLEGASYICNLNEKALHTAKASLCDNADWSSFFREVQLAFNSGRVTVQPGNAHRVAVNAAAPVSADSKGLACSMEVHCLSGSGEKCATFVLERTTEDQQKYILESMLQAHHMYNHPKEYEQKLLHIMEAKEIACTKREALDRELVALNDNLTRNKHKQKINNERKEELLKKLGGYSTENTGNPWQAIQEQQQRTAGENTKSRLPSPLGNRTCKDFDLVLFRMIKSRWLSPEQCDASSPANRVVQPYSKEDLAIQVSQLSGSRAAIWKALDSIDSWSYRVFDVQAAMSGDDYLSLSTQTHGGSLLITMYALLCMHDFLQKFKIDEQIALNWISAVEASYHGNPYHNSMHAADVLQITDFIITQGGLAKRCDLSDIQVFSALLAASIHDFDHPGINNNFHIKTGSYLATLYNDRSVLENLHVSSVFELMKNPAFNILASFSDEQHHEVRETMIEMVLATDMGSHGKYVASLKGKMQEHSSFTQTAEQNLCLAIALKMADISNCGRPLDIYLRWGAKVSDEFYQQGDRERNLGLECSPFMDRLQPSLAKSQIAFMNYIITPFFEQVAELLPDMRFAVALVEENKAYWANHDDS", "soluble on expression in E. coli": "soluble"}, {"sequence": "GPGSMLRRQLHLSAIGGVSAAAAAVLDGIGPSSAAAATGTLSSSSTSLSVMASVSPLLMPCRGVKLVNPIGKQGSQHYGLEPKLEAGRDTQLKHTEMYDGYTDDFGVFKEGPPVTLRLEYVRSPDHGYSQHILQKDIWSPFQVGANMMSYTPLYYDWKGFSSRDYFGHRSGTNPGSKVLLGHYRRDEVRSWGYRIMVNHKPQKRIPKWLACVVHIPRKKTFLGFFLYANGAYVAELLTYKQLPRIIYNKAFQGCLPTIGQTVSLTEVTYGKEIHSVEMYPGHGGVICRASGTAAVVLRGSEPNLVPLLLPSKEVRLFDNMCHAVFGRRAGVMYNKQRNFSKRSVEENMPHRPKVHSKTKRVSSHPAGGGNGGSPNLLTPLDWRIHPRNCVKTKYWLSGYILRGRQYNRNQTVADLKSKTYSWANRDPVYR", "soluble on expression in E. coli": "not soluble"}, {"sequence": "GPGSMLRRTLRRLMPSDAIGSVHPDVLWGYQQGQYAGPGWANFVKSLPLETLAMQGGSTMANLNDRAGTFLDPEDPRHPLALMQFGIMGKMDGTFHQLAYGDFGRVPKGSRLMQVLYENYLEPFSMNRVCAQLYFYQKVPNNYHASVDATAEYVGQTASLVGQVVVGLGACIMEGVTIRADTNCVYIAEGVQILENTCIMSDAPTDLLAYQRHELLNPYQQWDGMDGVTRIMPNTIIESNCYLDGCSIGSFNRIGHNTKIMKGVTTGIMVHIMPGSVVTADTKIGDGELWGGAPACKIGEVSKFEYKRPYYASLLHRESVAESYRNMSRYGDQFVHYMNAMGQLETLMIHYEDHVTPGIKAKVRDFEEGREPFHHTITRIAQGWSPANRPDDKNFAMAPPAPGVKLFAEHNTDSSPSEWNGSYANITNIFNDFRW", "soluble on expression in E. coli": "not soluble"}, {"sequence": "GPGSMMIDGAINPREWFNWHPKEYQPWYFDRHKFIYEQGQYAAYNHLLCHQAYLKDIEHLTRYPEPRTFVIDCRMSPAKMHRWVPHSMWLPRDEVEYALQLTNDEFQEMYGFIKPAKDDDVILISHNGLASEQAGWEWRKQYYQHVYNYRGGTNELFGEDYQDFILKDRLDPWKGPYPQKSIFVDKWSKRKVLTRTGPFDRQYEMQDFALPDLELERPRHSEDGPRQNMPYGLQ", "soluble on expression in E. coli": "not soluble"}, {"sequence": "GPGSMMNLAPDTITIGAQRNTELLLLEYLRSTNPHIHALWQRHPNKDNDASSSSAASSPSKDTRGASGSDVGDANASSSSAASALRESFDYTEPRLYRAAHVHFLMENLSVAPQGFSSLYPSRPWIVYWALQAADVLNSMESEVLHRTPPSAIVAFLHSCLSVDHTCQAEVNNRLAAAATSARGAPEGKDPHVTGTPLESSTTSVTLERDSADATSATLMPPVEDAAEVAEGPSRPVMGFAGGATHQEPHIASSYAACCALAMLSWYGDGAPLRQLPRAAIKRWLLTLRNEDGSFRVHGGGESDIRASYCAAVITTLLGLDDPTTFDGEAGRCEFVDDVRDVPVLTLQTARFVAACQTHEGGFTCSPTASEAHGAYTQCGLAALLLMKQPHMVHQASLRRWLAARQLNYEGGFNGRTNKLVDSCYSHWIGASHVLLRTVEAYTKCFTEVPTTHSRNGDGTGGCEDGYREDVDCTPSARCLRAREVVLLDHAQLLDAKMIHASADDAWDRAESAHLTRLGVVDQFLGADDAVLRSAEEKRTAVTALYERLLESRLAAVRSCDGNGDAAAGDVQGSLEAWRARQAFLYADVGDFYFNQRKLQDYVLRCCQDSEIGGLMDKPQTAHDGYHTCYSLSGLSAAQNLQYRTHVTAADAAYPSTYLERAFARSYLPGRESGSTSGNEEGSCGVVLGLPNTSAAAESMLLRTTSPIFNIHQSRVLSALRAWSVKAFV", "soluble on expression in E. coli": "not soluble"}]}]}
